Where a chain is given by its changes, count along the chain named. Names may count otherwise.
B1: humanized B-F5 version H37L/L4L (antibody, V domains shown)
VH: EEQLVESGGGLVKPGGSLRLSCAASGFSFSDCRMYWLRQAPGKGLEWIGVISVKSENYGANYAESVRGRFTISRDDSKNTVYLQMNSLKTEDTAVYYCSASYYRYDVGAWFAYWGQGTLVTVSS
VL: DIVLTQSPDSLAVSLGERATINCRASKSVSTSGYSYIYWYQQKPGQPPKLLIYLASILESGVPDRFSGSGSGTDFTLTISSLQAEDVAVYYCQHSRELPWTFGQGTKVEIK
notes: also called hB-F5; H37L/L4L IgG1
B2: humanized B-F5 version H37L/L4M (antibody, IgG1, V domains shown)
VH: B1 VH
VL: B1 VL with L4M
notes: also called hB-F5; H37L/L4M IgG1
B3: humanized B-F5 version H37V/L4L (antibody, V domains shown)
VH: B1 VH with L37V
VL: B1 VL
notes: also called hB-F5
B4: humanized B-F5 version H37V/L4M (antibody, V domains shown)
VH: B1 VH with L37V
VL: B1 VL with L4M
notes: also called hB-F5

These binders were tested against T1, soluble CD4 (human, UniProt P01730 26-396) (assay: competitive ELISA against biotinylated mB-F5 on coated soluble CD4, 37 C 2 hours).
T1 construct: extracellular domain
Description: Culture supernatants of transfectomas producing the four versions of hB-F5 were collected, and concentrated. The different antibodies were purified from culture supernatants by affinity chromatography using protein A Sepharose and assessed for their CD4 binding activity by measuring, by means of competitive ELISA, their inhibitory activities against the binding of biotinylated mB-F5 to soluble CD4 coated on microtiter plates. Incubation time is 2 hours for 37 C and overnight for 4 C.

Row | Binder | Relative binding activity (% of mB-F5)
1 | B1 | 30 % of mB-F5
2 | B2 | 30 % of mB-F5
3 | B3 | 10 % of mB-F5
4 | B4 | 10 % of mB-F5

From US20090208496A1 (BIOTEST, published 2009)
